Results: US20200277349A1 (FRAUNHOFER GESELLSCHAFT ZUR F RDERUNG DER ANGEWANDTEN …, published 2020)
One block for each binder: values may come before it.

Columns and labels:
[1] = biological target: T1, human IL-1RAPL1 extracellular domain-Fc chimera (human, UniProt Q9NZN1 19-357); test: plate binding assay on immobilized IL-1RAPL1 extracellular domain-Fc chimera (FIG. 7B)
T1 construct: extracellular domain; Coated on 96 well plates at 0.5 ug; also called IL-1RAPL1-Fc; immobilized IL-1RAPL1; not shown: Fc part of the chimera
T1 sequence (looked up): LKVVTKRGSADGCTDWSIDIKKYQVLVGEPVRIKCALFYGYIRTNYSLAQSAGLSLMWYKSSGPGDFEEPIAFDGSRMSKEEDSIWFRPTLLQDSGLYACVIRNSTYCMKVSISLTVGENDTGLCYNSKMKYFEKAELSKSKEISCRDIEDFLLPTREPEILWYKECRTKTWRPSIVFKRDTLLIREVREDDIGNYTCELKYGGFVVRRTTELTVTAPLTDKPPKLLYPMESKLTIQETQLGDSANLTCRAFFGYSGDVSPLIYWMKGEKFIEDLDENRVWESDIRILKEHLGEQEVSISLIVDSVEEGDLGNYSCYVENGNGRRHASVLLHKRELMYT
Experimental: (§1) After 24 h IL-6 concentration in the supernatants was measured using cytometric bead array, normalized results are shown. Data are means±SEM, n=7. (B) Binding kinetics of full length and cleaved IL-38 to immobilized IL-1RAPL1. […] IL-38 binding to the extracellular domain of the receptors was detected using biotinylated monoclonal IL-38 antibody. Data are means±SEM, n=5.*p<0.05, ANOVA with Bonferroni's correction.
(§2) The inventors performed a receptor binding assay as explained above. Both IL-38 isoforms bound to IL-1RAPL1 in this assay (FIG. 7B). However, binding kinetics seemed to differ slightly. […] IL-1RAPL1 knock-down in macrophages abrogated both, IL-6 induction by full-length 11-38 and IL-6 suppression by truncated IL-38 (FIG. 7C).

[2] = biological target: T1, human IL-1RAPL1 extracellular domain-Fc …; test: plate binding assay: IL-1RAPL1-Fc coated, IL-38 titrated, detected with biotinylated monoclonal IL-38 antibody
Experimental: as §1, §2

- binding result [1]: binds
B1: recombinant human truncated (cleaved) IL-38 (IL-38aa20-152) (ligand)
chain: LYTRDGQLLVGDPVADNCCAEKICILPNRGLARTKVPIFLGIQGGSRCLACVETEEGPSLQLEDVNIEELYKGGEEATRFTFFQSSSGSAFRLEAAAWPGWFLCGPAEPQQPVQLTKESEPSARTKFYFEQSW
notes: also called truncated IL-38

- binding result [2]: binds
B2: recombinant human full length IL-38 (IL-38aa1-152) (ligand)
chain: MCSLPMARYYIIKYADQKALYTRDGQLLVGDPVADNCCAEKICILPNRGLARTKVPIFLGIQGGSRCLACVETEEGPSLQLEDVNIEELYKGGEEATRFTFFQSSSGSAFRLEAAAWPGWFLCGPAEPQQPVQLTKESEPSARTKFYFEQSW
